Publication PMC5264208, “Transitional changes in the CRP structure lead to the exposure of proinflammatory binding sites” (Nature Communications, 2017)

Key:
[1] = target: T1, Alexa Fluor 488-labelled C1q (human, UniProt P02745 23-245; P02746 28-253; P02747 29-245, Alexa Fluor 488 (site and chain not stated) | Alexa Fluor 488 (site and chain not stated) | Alexa Fluor 488 (site and chain not stated)); assay: real-time fluorescence binding (LigandTracer); THP-1 microvesicles (0.5 mg/ml) spotted on nitrocellulose, blocked with 5% BSA; Alexa Fluor 488-labelled C1q added with or without pCRP; conditions: both partners purified
T1 construct: Complement C1q subcomponent subunit A, human; Complement C1q subcomponent subunit B, human; Complement C1q subcomponent subunit C, human; Same protein as m3 with a fluorescent label; source: labelled with Alexa Fluor 488; copies: 6 + 6 + 6

[2] = target: T2, human complement factor 1q (human, UniProt P02745 23-245; P02746 28-253; P02747 29-245); assay: real-time fluorescence binding (LigandTracer); human C1q (60 ug/ml) spotted on nitrocellulose; CMFDA-labelled THP-1 microvesicles preincubated 2 h at 37 °C with pCRP or mCRP (100 ug/ml) and added at 20 ug/ml; the read-out is the fluorescence of the microvesicles that carry the CRP; conditions: both partners purified
T2 construct: Complement C1q subcomponent subunit A, human; Complement C1q subcomponent subunit B, human; Complement C1q subcomponent subunit C, human; also called C1q; complement C1q; source: bought: Merck Chemicals GmbH; copies: 6 + 6 + 6
T2 sequence (P02745 23-245, chain 1 of 3): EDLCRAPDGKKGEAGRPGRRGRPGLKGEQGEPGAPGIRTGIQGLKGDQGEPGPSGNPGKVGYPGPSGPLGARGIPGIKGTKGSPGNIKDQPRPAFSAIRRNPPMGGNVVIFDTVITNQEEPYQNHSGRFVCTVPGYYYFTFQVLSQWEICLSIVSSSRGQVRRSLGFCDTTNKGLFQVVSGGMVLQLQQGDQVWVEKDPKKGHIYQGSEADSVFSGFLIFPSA
T2 sequence (P02746 28-253, chain 2 of 3): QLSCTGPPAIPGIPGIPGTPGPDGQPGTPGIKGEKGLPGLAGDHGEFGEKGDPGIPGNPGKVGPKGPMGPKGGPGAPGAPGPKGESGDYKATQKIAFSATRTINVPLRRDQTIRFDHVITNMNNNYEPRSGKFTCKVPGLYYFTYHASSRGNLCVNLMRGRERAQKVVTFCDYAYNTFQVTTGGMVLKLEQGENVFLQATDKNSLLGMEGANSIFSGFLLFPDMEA
T2 sequence (P02747 29-245, chain 3 of 3): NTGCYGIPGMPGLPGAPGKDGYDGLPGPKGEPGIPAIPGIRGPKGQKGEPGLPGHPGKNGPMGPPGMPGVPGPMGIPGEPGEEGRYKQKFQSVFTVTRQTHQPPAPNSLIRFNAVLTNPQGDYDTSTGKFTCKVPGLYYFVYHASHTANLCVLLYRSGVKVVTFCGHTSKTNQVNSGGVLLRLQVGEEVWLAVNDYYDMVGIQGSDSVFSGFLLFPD

T1 sequence (P02745 23-245, chain 1 of 3): as the sequence (P02745 23-245, chain 1 of 3) above
T1 sequence (P02746 28-253, chain 2 of 3): as the sequence (P02746 28-253, chain 2 of 3) above
T1 sequence (P02747 29-245, chain 3 of 3): as the sequence (P02747 29-245, chain 3 of 3) above

B1: pentameric C-reactive protein (natural protein, human, UniProt P02741 19-224, looked up)
chain: QTDMSRKAFVFPKESDTSYVSLKAPLTKPLKAFTVCLHFYTELSSTRGYSIFSYATKRQDNEILIFWSKDIGYSFTVGGSEILFEVPEVTVAPVHICTSWESASGIVEFWVDGKPRVRKSLKKGYTVGAEASIILGQEQDSFGGNFEGSQSLVGDIGNVNMWDFVLSPDEINTIYLGGPFSPNVLNWRALKYEVQGEVFTKPQLWP
notes: C-reactive protein, human; five identical subunits of about 23 kDa; also called pCRP; CRP; source: bought: Calbiochem; dialysed against D-PBS with 2 mM Ca2+
binding result [1]: binds | binding result [2]: binds
